{"source": "patent US20180263927A1", "biological_target": "PSA (prostate specific antigen) (UniProt P07288)", "sequence (P07288 25-261 limits assumed)": "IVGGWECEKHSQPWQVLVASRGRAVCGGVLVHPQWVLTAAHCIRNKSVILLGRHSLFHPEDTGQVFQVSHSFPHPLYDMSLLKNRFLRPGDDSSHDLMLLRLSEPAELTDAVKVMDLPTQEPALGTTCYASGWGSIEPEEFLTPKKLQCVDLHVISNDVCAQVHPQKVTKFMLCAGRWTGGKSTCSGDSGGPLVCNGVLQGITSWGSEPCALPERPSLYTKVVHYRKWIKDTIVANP", "experiment": "cell-based or functional assay"}
{"substance": "Analog 221 (211/amide or nonester) Mu-His-Ser-Ser-Lys(Fmoc)-Leu-Gln-Leu (peptide)", "values": [{"measurement": "cytotoxicity IC50, 48 hour exposure, Prostate DuPro cells (trace PSA)", "value": 13, "unit": "µM"}, {"measurement": "cytotoxicity IC50, 48 hour exposure, Prostate LnCAP cells (positive PSA)", "value": 0.8, "unit": "µM"}, {"measurement": "cytotoxicity IC50, 48 hour exposure, Prostate PC3 cells (negative PSA, control)", "value": "> 21", "unit": "µM"}]}
